{"source": "paper PMC9121654", "about": "(Biochemical and Biophysical Research Communications, 2022)", "proteins": {"B1": {"name": "GYINVG-ZYG11B485-728 fusion protein (other)", "chain": "GYINVGAQLGTELFIVRQLLQIVKQKTNQNSVDTTLKFTLSALWNLTDESPTTCRHFIENQGLELFMRVLESFPTESSIQQKVLGLLNNIAEVQELHSELMWKDFIDHISSLLHSVEVEVSYFAAGIIAHLISRGEQAWTLSRSQRNSLLDDLHSAILKWPTPECEMVAYRSFNPFFPLLGCFTTPGVQLWAVWAMQHVCSKNPSRYCSMLIEEGGLQHLYNIKDHEHTDPHVQQIAVAILDSLEKHIVR"}}, "biological_target": "the molecule itself", "assay": "SEC", "data": [{"protein": "B1", "values": [{"measurement": "stoichiometry N", "result": 2}]}]}
